From PMC2862490 (Proteomics, 2009) come the findings set out here.

Square brackets hold non-standard residues; d marks the D form. Ends that are not written are not given here. pY = N[C@@H](Cc1ccc(OP(=O)(O)O)cc1)C(=O)O; Ahx = NCCCCCC(=O)O

For test [1], the target named is CSK, His tagged (UniProt P41240). The test can be described thus: immobilised peptide pull-down, anti-CSK blot. As to conditions: reference: unphosphorylated Y4507 peptide; sites Y4507.
In test [2] the target is Shp-2 (Shp2) SH2(C) domain (UniProt Q06124). Put plainly: immobilised peptide pull-down, anti-ubiquitin tag blot. The settings on record: reference: unphosphorylated Y4507 peptide; sites Y4507.
For test [3], the target named is Shp-2 (Shp2) SH2(N) domain (UniProt Q06124). Described as above. The settings on record: reference: unphosphorylated Y4507 peptide; sites Y4507.
Test [4] deals with PLCγ-1 C SH2 domain, 663-759 (UniProt P19174). The test can be described thus: immobilised peptide pull-down, anti-GST blot. The settings on record: reference: unphosphorylated Y4507 peptide; sites Y4507.
The target in test [5] is PLCγ-1 N SH2 domain, 544-659 (UniProt P19174). Put plainly: immobilised peptide pull-down, anti-GST blot. The settings on record: reference: unphosphorylated Y4507 peptide; sites Y4507.
In test [6] the target is Grb2 SH2 domain, 58-159 (UniProt P62993). The test can be described thus: immobilised peptide pull-down, anti-GST blot. The settings on record: reference: unphosphorylated Y4507 peptide; sites Y4507.
For test [7], the target named is T1, GST tagged N SH2 domain of PLCγ-1 (544–659) (human, UniProt P19174 544-659).
T1 sequence (looked up): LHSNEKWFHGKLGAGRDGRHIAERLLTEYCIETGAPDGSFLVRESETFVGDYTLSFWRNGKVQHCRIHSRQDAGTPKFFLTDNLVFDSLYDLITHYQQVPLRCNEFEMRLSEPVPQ
The test can be described thus: pull-down.

Test [8] has as its target T2, GST tagged C SH2 domain of PLCγ-1 (663–759) (human, UniProt P19174 663-759).
T2 sequence (looked up): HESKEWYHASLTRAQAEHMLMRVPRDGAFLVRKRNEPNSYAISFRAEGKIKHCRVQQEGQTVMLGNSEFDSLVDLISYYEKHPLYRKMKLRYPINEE
The test can be described thus: pull-down.

The target of test [9] is GST tagged SH2 domain of Grb2 (58–159) (human, UniProt P62993 58-159). Put plainly: pull-down.

Turning to “LDL receptor-related protein 1 (LRP1) NPXY4507 microdomain (from UniProt Q07954) pY4507 peptide”, the “binding against the reference” value in [1], in [2], in test [3], in [4], in test [5] and in test [6] was “stronger” each time.
Regarding C[Ahx]TNFTNPV[pY]ATLY [NPXpY_(4507) microdomain of LRP1-CT, tyrosine-phosphorylated], the binding result in test [7], in test [8] and in test [9] was “binds” throughout.
